The record followed here is patent US5888811A, “Corticotropin-releasing hormone receptor” (DuPont Pharmaceuticals Company, priority 1997, dated 1999).

The target of experiment [1] is T1, CRHR2 γ (Homo sapiens, UniProt Q13324, DEL106-106).
T1 sequence (Q13324 with tags, fused parts or gaps DEL106-106): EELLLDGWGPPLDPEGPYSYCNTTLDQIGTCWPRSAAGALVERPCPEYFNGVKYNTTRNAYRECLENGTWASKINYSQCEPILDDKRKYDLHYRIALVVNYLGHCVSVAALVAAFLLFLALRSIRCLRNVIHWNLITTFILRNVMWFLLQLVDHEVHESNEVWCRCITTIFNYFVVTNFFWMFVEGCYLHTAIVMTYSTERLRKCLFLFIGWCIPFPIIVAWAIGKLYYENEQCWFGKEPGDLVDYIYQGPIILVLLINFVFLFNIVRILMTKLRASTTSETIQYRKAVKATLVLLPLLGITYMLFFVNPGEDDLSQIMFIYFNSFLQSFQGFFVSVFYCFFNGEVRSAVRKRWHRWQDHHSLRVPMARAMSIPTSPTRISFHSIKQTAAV
Nature of the experiment: Whole cell adenylate cyclase assay (cAMP accumulation) in HEK293EBNA cells expressing CRHR2γ. The format is cell-based. The note with it: rank order only; summary statement.
Description: HEK293EBNA cells expressing the CRHR2 γ were incubated in DMEM with low serum (0.1% FBS) at 37° C., 5% CO2 for at least 2 hrs before the addition of isobytylmethoxyxanthine (IBMX) to the media at a final concentration of 0.1 mM. The cells were incubated with the IBMX for 30 minutes; test peptides or compounds were then added to the media and incubated therein for 25-30 min. The media was then aspirated from the cells and replaced with ice cold sodium acetate buffer containing 1 mM IBMX. The cells were then disrupted by a freeze-thaw, followed by sonication. Supernatants were assayed for cAMP levels with PerSeptive Diagnostics EIA Kit.

The target of experiment [2] is T2, CRHR2 γ receptor (Homo sapiens, UniProt Q13324, DEL106-106).
T2 construct: the full length CRHR2 γ cDNA (original cDNA library clone) was subcloned; expressed in transfected cells; membranes
T2 sequence (Q13324 with tags, fused parts or gaps isoform Q13324-3 DEL92-92): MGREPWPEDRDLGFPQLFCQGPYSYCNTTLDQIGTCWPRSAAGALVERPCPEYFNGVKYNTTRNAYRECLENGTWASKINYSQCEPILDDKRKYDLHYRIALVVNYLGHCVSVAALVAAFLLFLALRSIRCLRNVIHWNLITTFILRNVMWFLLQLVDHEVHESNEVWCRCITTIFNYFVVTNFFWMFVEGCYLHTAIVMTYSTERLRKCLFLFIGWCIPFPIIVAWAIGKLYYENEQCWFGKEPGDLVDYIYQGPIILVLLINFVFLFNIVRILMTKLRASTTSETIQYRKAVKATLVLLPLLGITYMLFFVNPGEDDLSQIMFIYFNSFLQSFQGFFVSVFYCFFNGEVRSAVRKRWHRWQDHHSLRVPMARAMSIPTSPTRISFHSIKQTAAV
Nature of the experiment: Displacement of 125I-tyr-0-sauvagine from membranes of HEK293EBNA cells expressing CRHR2γ. The format is binding. The note with it: 60-70 pM 125I-tyr-0-sauvagine; 23° C., 4 hours; read-out: approximate IC50 for displacement of 125I-tyr-0-sauvagine.
Description: Buffer consisted of 50 mM HEPES, 10 mM MgCI2, 2 mM EGTA, and 1 μg/ml each of aprotinin, leupeptin, and pepstatin at a final pH of 7.0. Bacitracin at 0.15 mM and ovalbumin at 0.1% were added to the buffer on the day of use. Assays were performed at 23° C. for 4 hours in a final volume of 200 μl in 96-well microtiter plates. Reactions were initiated by the addition of 10-20 μg of membrane homogenates and terminated by rapid filtration through presoaked (0.3% polyethyleneimine) glass fiber filters using an Inotech 96-well harvester. The filters were washed quickly 3×with ice-cold solution (PBS+0.01% TritonX-100, pH7.2), dried briefly, then placed into polystyrene tubes and counted on an Isomedic 10/880 γ counter (counting efficiency ~80%). Data was analyzed by nonlinear regression analysis using the computer program MacLigand. Determinations were made from at least 3 separate experiments.

Where no end group is shown, it is not given here.

With “r/h CRH: rat/human corticotropin-releasing hormone, agonist peptide”, the “potency of stimulation of adenylate cyclase activity (rank order), measured by intracellular cAMP accumulation” value in experiment [1] is “sauvagine>urotensin>rat/human CRH”. With “urocortin: mammalian neuropeptide related to fish urotensin I and to corticotropin-releasing factor (DNPSLSIDLTFHLLRTLLELARTQSQRERAEQNRIIFDSV; ends and bridges not checked; UniProt P55089 83-122, looked up)”, the IC50 in experiment [2] was approximately 2 nM.
